Measured values published in patent US20260242489A1 (HUAHUI HEALTH, published 2026).
Where a chain is given by its changes, count along the chain named. Names may count otherwise.

Columns and labels:
[1] = target: T1, hEGFR ECR-His6-Avi-Biotin (human, UniProt P00533 25-642, biotinylated on the Avi tag using BirA ligase); test: phage ELISA: biotinylated hEGFR ECR captured on streptavidin plate, phage display scFv titrated, anti-M13-HRP; pH 6.0
T1 construct: also called WT hEGFR ECR; human EGFR ECD; not shown: His6-Avi tag

[2] = target: T1, hEGFR ECR-His6-Avi-Biotin; test: phage ELISA: biotinylated hEGFR ECR captured on streptavidin plate, phage display scFv titrated, anti-M13-HRP; pH 7.4
[3] = target: T1, hEGFR ECR-His6-Avi-Biotin; test: ELISA: hEGFR ECR on plate, IgG1 titrated, anti-hFc-HRP; pH 7.4 [right panel]
From the text: (§1) Then antibody-hEGFR binding was detected with an HRP-conjugated anti-hFc secondary antibody.

[4] = target: T1, hEGFR ECR-His6-Avi-Biotin; test: ELISA: hEGFR ECR on plate, IgG1 titrated, anti-hFc-HRP; pH 6.0 [right panel]
From the text: as §1

[5] = target: T1, hEGFR ECR-His6-Avi-Biotin; test: ELISA: hEGFR ECR on plate, IgG1 titrated, anti-hFc-HRP; pH 7.4 [table]
[6] = target: T1, hEGFR ECR-His6-Avi-Biotin; test: ELISA: hEGFR ECR on plate, IgG1 titrated, anti-hFc-HRP; pH 6.5 [table]
[7] = target: T1, hEGFR ECR-His6-Avi-Biotin; test: IgG1 ELISA on hEGFR ECR, pH 6.5 and pH 7.4
[8] = target: T2, human EGFR, full-length, on A-431 cells or CT26-hEGFR cells (human, UniProt P00533 25-1210); test: flow cytometry on CT26-hEGFR cells, pH 7.4
T2 construct: A-431 cells (own EGFR) and mouse CT26 cells transfected with human EGFR; the cell line is named under assay
Method: (§2) Antibody binding to cells was then assessed based on the fluorescence intensity for FITC.

[9] = target: T2, human EGFR, full-length, on A-431 cells …; test: flow cytometry on A-431 cells, pH 7.4
Method: as §2

[10] = target: T2, human EGFR, full-length, on A-431 cells …; test: flow cytometry on CT26-hEGFR cells, pH 6.5
Method: as §2

[11] = target: T3, mEGFR ECR (His6-Avi-tagged) (mouse, UniProt Q01279 25-644); test: SPR (Biacore T200), antibody captured, mEGFR ECR analyte, steady-state affinity model, pH 7.4
T3 construct: also called mouse EGFR; not shown: His6-Avi tag

[12] = target: T3, mEGFR ECR (His6-Avi-tagged); test: SPR (Biacore T200), antibody captured, mEGFR ECR analyte, steady-state affinity model, pH 6.5
Method: (§3) Kinetics analyses of the binding of anti-EGFR antibodies to the ECR of mouse and human EGFR were performed on a Biacore T200 instrument (Biacore, GE Healthcare). Anti-hFc Ab or protein A/G (Thermo Fisher Scientific) was covalently attached to the surface of a CM5 sensor chip using an amine coupling kit (GE Healthcare). […] Binding kinetics were evaluated using a 1:1 Langmuir binding model. The dissociation constant (KD) values were calculated with a steady-state affinity model using the Biacore T200 evaluation software.

[13] = target: T2, human EGFR, full-length, on A-431 cells …; test: flow cytometry on A-431 cells, pH 6.5
Method: as §2

[14] = target: T1, hEGFR ECR-His6-Avi-Biotin; test: SPR (Biacore T200), antibody captured, hEGFR ECR analyte, steady-state affinity model, pH 6.5
Method: as §3

[15] = target: T1, hEGFR ECR-His6-Avi-Biotin; test: SPR (Biacore T200), antibody captured, hEGFR ECR analyte, steady-state affinity model, pH 7.4
Method: as §3

[16] = target: T1, hEGFR ECR-His6-Avi-Biotin; test: competition ELISA: hEGFR ECR on plate, IgG1 titrated in a mixture with EGF-mFc, bound EGF-mFc detected with anti-mFc-HRP; pH 6.5 [table]
[17] = target: T2, human EGFR, full-length, on A-431 cells …; test: flow cytometry on A-431 cells
Method: as §2

[18] = target: T2, human EGFR, full-length, on A-431 cells …; test: flow cytometry on CT26-hEGFR cells
Method: as §2

[19] = target: T1, hEGFR ECR-His6-Avi-Biotin; test: SPR (Biacore T200), hEGFR ECR analyte, steady-state affinity model
Method: as §3

[20] = target: T3, mEGFR ECR (His6-Avi-tagged); test: SPR (Biacore T200), mEGFR ECR analyte, steady-state affinity model
Method: as §3

[21] = target: T1, hEGFR ECR-His6-Avi-Biotin; test: phage ELISA: hEGFR ECR on plate, phage display Fab titrated, anti-M13-HRP; EC50 at pH 7.4 over EC50 at pH 6.5 [table]
[22] = target: T1, hEGFR ECR-His6-Avi-Biotin; test: competition ELISA: hEGFR ECR on plate, IgG1 titrated in a mixture with EGF-mFc, bound EGF-mFc detected with anti-mFc-HRP; pH 7.4 [table]

B1: 11C04 (scFv, part only; not given: scFv linker, domain order, phage fusion, V domains shown, not shown: another chain or arm of the molecule; large carriers; small tags and cut ends)
VH: EVQLVQSGAEVKKPGASVKVSCKASGYTFTSYYMHWVRQAPGQGLEWMGIINPSGGSTSYAQKFQGRVTMTRDTSTSTVYMELSSLRSEDTAVYYCARDLEMAYYDILYGMDVWGQGTLVTVSS
VL: QSALTQPASVSGSAGQSITISCTGTTSDIGRYDYVSWYQQHPGQVPKLMIYDVSNRPSGVSDRFSGSKSGNTASLTISGLQTEDEADYYCSSYTTSGTRVFGGGTKLTVL
- EC50 (read off the curve) [1]: 1e+10 cfu/ml
- EC50 (read off the curve) [2]: 1e+10 cfu/ml

B2: 14C07 (phage display scFv form) (scFv, V domains shown)
VH: QVQLVQSGAEVKRPGSSVKVSCKASGGTFSSYAISWVRQAPGQGLEWMGGIIPIFGTANYAQKFQGRVTITADESTSTAYMELSSLRSEDTAVYYCARDSSSGWYDYFDYWGQGTLVTVSS
VL: QPVLTQPPSVSAAPGAMARITCESPDIGSKSVQWYQQRPGQAPILVIYYDDDRPSGIPERFSGSNSGNTAALTINWVEPEDEADYYCQAWDDSDPVVFGGGTQLTVL
- EC50 (read off the curve) [1]: ~1e+11 cfu/ml

B3: 11A10 (full-length human IgG1 form) (antibody, V domains shown)
VH: EVQLVQSGAEVKKPGESLMISCKGSGYSFTNHWIGWVRQMPGKGPEWMGIINPRDSDARYSPSFRGQVTFSVDRSTNTAYLQWTSLKPSDTGMYFCARRDIVVVPAATPSYYYYGMDVWGQGTTVTVSS
VL: DIQLTQSPSSLSASVGDSVTITCRPRQSSSRFVNWYQHKPGKAPKLLISNASDLQHGVPSRFSGRGAGTEFTLTIDSLQPDDVATYYCEQSYRFPHMFGQGTKVEIKR
- EC50 [3]: 58.9 nM
- EC50 [4]: 1.36 nM

B4: G532^V (human IgG1 form) (antibody, V domains shown)
VH: QVQLVQSGAEVKRPGSSVKVSCKASGGISDGSAISWVRQAPGQGLEWMGGIRWWGGITNYAQKFQGRVTITADESTSTAYMELSSLRSEDTAVYYCARDSSLGYYDYFDYWGQGTLVTVSS
VL: QPVLTQPPSVSAAPGQTARITCGGNNIGEKHVQWYQQRPGQAPVLVIYYDSTRPSGIPERFSGSNSGNTAALTINSVEAGDEADYYCQAWDDYDPVVFGGGTQLTVLG
notes: G532 with LCDR1 E32H and LCDR2 D52S, D53T
- EC50 [5]: 0.517 nM
- EC50 [6]: 0.316 nM
- EC50 ratio (pH 7.4/pH 6.5) [7]: 1.64
- fold lower binding pH-dependency than G532 [7]: ~5 fold

B5: G532 (human IgG1 form) (antibody, V domains shown)
VH: B4 VH
VL: B4 VL with H31E, S51D, T52D
- EC50 [8]: 15.2 nM
- EC50 [9]: 13.7 nM
- EC50 [10]: 0.787 nM
- Kd [11]: 1810 nM
- Kd [12]: 547 nM
- EC50 [5]: 5.58 nM
- EC50 [13]: 0.528 nM
- Kd [14]: 294 nM
- Kd [15]: 3900 nM
- EC50 [6]: 0.69 nM
- IC50 [16]: 20.6 nM
- EC50 ratio (pH 7.4/pH 6.5) [7]: 8.08
- EC50 ratio (pH 7.4/6.5) [17]: 26
- EC50 ratio (pH 7.4/6.5) [18]: 19.4
- KD ratio (pH 7.4/6.5) [19]: 13.3
- KD ratio (pH 7.4/6.5) [20]: 3.31

B6: WT G5V2 (phage display Fab form) (Fab, V domains shown)
VH: B4 VH with R52Y, W53F, W54F, G55N, I57N
VL: QPVLTQPPSVSAAPGQTARITCGGNNIGEKYVQWYQQRPGQAPVLVIYYDDDRPSGIPERFSGSNSGNTAALTINSVEAGDEADYYCQAWDDYDPVVFGGGTQLTVL
- EC50 ratio (pH 7.4/pH 6.5) [21]: 1.21

B7: G5V2 Y32H (phage display Fab form) (Fab, V domains shown)
VH: B4 VH with R52Y, W53F, W54F, G55N, I57N
VL: B6 VL with Y31H
notes: Kabat numbering (31st letter by plain count)
- EC50 ratio (pH 7.4/pH 6.5) [21]: 0.61

B8: G532^Ctrl (human IgG1 form) (antibody, V domains shown)
VH: B4 VH
VL: B4 VL with K30N
notes: G532^V with LCDR1 K31N; also called non-pH-dependent variant of G532
- EC50 [8]: 0.587 nM
- EC50 [9]: 0.554 nM
- EC50 [10]: 1.25 nM
- Kd [11]: 743 nM
- Kd [12]: 1270 nM
- EC50 [5]: 0.635 nM
- EC50 [13]: 0.771 nM
- Kd [14]: 406 nM
- IC50 [22]: 61.8 nM
- Kd [15]: 243 nM
- EC50 [6]: 0.837 nM
- IC50 [16]: 39.5 nM
- EC50 ratio (pH 7.4/pH 6.5) [7]: 0.759
- EC50 ratio (pH 7.4/6.5) [17]: 0.718
- EC50 ratio (pH 7.4/6.5) [18]: 0.469
- KD ratio (pH 7.4/6.5) [19]: 0.599
- KD ratio (pH 7.4/6.5) [20]: 0.586
